Assay results as given in patent US20170368189.

Columns and labels:
[1] = target: T1, Permanent N-terminal CNP-34 PEG 5 kDa conjugate 14e (not fully specified)
T1 chain: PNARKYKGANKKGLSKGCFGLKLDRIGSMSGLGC

[2] = target: T2, Permanent Lys26 CNP-38 PEG4x10 kDa conjugate 12g (not fully specified)
T2 chain: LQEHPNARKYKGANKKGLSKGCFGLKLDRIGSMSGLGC

[3] = target: T3, Permanent N-terminal CNP-38 PEG 5 kDa conjugate 15e (not fully specified)
T3 chain: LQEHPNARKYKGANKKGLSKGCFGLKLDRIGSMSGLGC

Measured: half life norm. [h] (in vitro NEP digest)

B1: recombinant human Neutral Endopeptidase (NEP) (protein)
chain: YDDGICKSSDCIKSAARLIQNMDATTEPCTDFFKYACGGWLKRNVIPETSSRYGNFDILRDELEVVLKDVLQEPKTEDIVAVQKAKALYRSCINESAIDSRGGEPLLKLLPDIYGWPVATENWEQKYGASWTAEKAIAQLNSKYGKKVLINLFVGTDDKNSVNHVIHIDQPRLGLPSRDYYECTGIYKEACTAYVDFMISVARLIRQEERLPIDENQLALEMNKVMELEKEIANATAKPEDRNDPMLLYNKMTLAQIQNNFSLEINGKPFSWLNFTNEIMSTVNISITNEEDVVVYAPEYLTKLKPILTKYSARDLQNLMSWRFIMDLVSSLSRTYKESRNAFRKALYGTTSETATWRRCANYVNGNMENAVGRLYVEAAFAGESKHVVEDLIAQIREVFIQTLDDLTWMDAETKKRAEEKALAIKERIGYPDDIVSNDNKLNNEYLELNYKEDEYFENIIQNLKFSQSKQLKKLREKVDKDEWISGAAVVNAFYSSGRNQIVFPAGILQPPFFSAQQSNSLNYGGIGMVIGHEITHGFDDNGRNFNKDGDLVDWWTQQSASNFKEQSQCMVYQYGNFSWDLAGGQHLNGINTLGENIADNGGLGQAYRAYQNYIKKNGEEKLLPGLDLNHKQLFFLNFAQVWCGTYRPEYAVNSIKTDVHSPGNFRIIGTLQNSAEFSEAFHCRKNSYMNPEKKCRVW
Almost no proteolysis after 4 days.: [1] | [2] | [3]
